The values that follow are results of earlier work, collected in paper PMC6524963.

In data set [1] the target is Ran (Homo sapiens) (UniProt P62826).
Data set [2] has the same target. This is another data set of the same source.

Like-named read-outs stand apart in the source and are kept apart here.

In general, Kd refers to the concentration at which binding is half-saturated. With “RanBP1/RanBP2 RBD RBD (from UniProt P43487)”, the Kd in the data set with Ran (Homo sapiens) [1] is 0.001 µM; with Ran (Homo sapiens) [2], 10 µM.
